Data from the supplement of paper PMC10567573.

B1: VPS39 (parent)
chain: LRLENNHCHIEESEHVLKKAHKYS

Variants of: B1
Test: protein stability index of a GFP-peptide fusion (GPS, HEK-293T) (PSI 1-6); higher = more stable
Details: c terminus: a fixed tail appended
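Note: lentivirally expressed fusions sorted by FACS into six bins by GFP to DsRed ratio, PSI derived from sequencing read proportions per bin multiplied by bin number.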

Variant | protein stability index
LRLHNNHCHIEESEHVLKKAHKYS | 3.32
LRLKNNHCHIEESEHVLKKAHKYS | 3.45
LRLINNHCHIEESEHVLKKAHKYS | 2.17
LRLDNNHCHIEESEHVLKKAHKYS | 3.12
LRLWNNHCHIEESEHVLKKAHKYS | 2.44
LRLSNNHCHIEESEHVLKKAHKYS | 2.71
LRLVNNHCHIEESEHVLKKAHKYS | 2.71
LRLFNNHCHIEESEHVLKKAHKYS | 2.54
LRLPNNHCHIEESEHVLKKAHKYS | 2.83
LRLANNHCHIEESEHVLKKAHKYS | 2.68
LRLYNNHCHIEESEHVLKKAHKYS | 2.53
LRLNNNHCHIEESEHVLKKAHKYS | 3.92
LRLTNNHCHIEESEHVLKKAHKYS | 2.56
LRLLNNHCHIEESEHVLKKAHKYS | 2.35
LRLMNNHCHIEESEHVLKKAHKYS | 2.65
LRLQNNHCHIEESEHVLKKAHKYS | 2.92
LRLRNNHCHIEESEHVLKKAHKYS | 3.45
LRLCNNHCHIEESEHVLKKAHKYS | 2.44
LRLGNNHCHIEESEHVLKKAHKYS | 2.41
LRLENNHCHIDESEHVLKKAHKYS | 2.65
LRLENNHCHINESEHVLKKAHKYS | 2.19
LRLENNHCHIIESEHVLKKAHKYS | 2.12
LRLENNHCHIWESEHVLKKAHKYS | 2.75
LRLENNHCHIVESEHVLKKAHKYS | 1.97

Variant | protein stability index
LRLENNHCHIYESEHVLKKAHKYS | 3.06
LRLENNHCHITESEHVLKKAHKYS | 2.49
LRLENNHCHIKESEHVLKKAHKYS | 2.79
LRLENNHCHIAESEHVLKKAHKYS | 3.06
LRLENNHCHIMESEHVLKKAHKYS | 2.31
LRLENNHCHILESEHVLKKAHKYS | 2.86
LRLENNHCHIFESEHVLKKAHKYS | 1.75
LRLENNHCHIHESEHVLKKAHKYS | 2.52
LRLENNHCHIQESEHVLKKAHKYS | 2.06
LRLENNHCHIGESEHVLKKAHKYS | 2.72
LRLENNHCHIRESEHVLKKAHKYS | 3.35
LRLENNHCHISESEHVLKKAHKYS | 3.04
LRLENNHCHIPESEHVLKKAHKYS | 2.26
LRLENNHCHICESEHVLKKAHKYS | 1.99
LRLENNHCHFEESEHVLKKAHKYS | 2.11
LRLENNHCHREESEHVLKKAHKYS | 3.01
LRLENNHCHSEESEHVLKKAHKYS | 3.33
LRLENNHCHLEESEHVLKKAHKYS | 1.9
LRLENNHCHYEESEHVLKKAHKYS | 2.57
LRLENNHCHCEESEHVLKKAHKYS | 3.18
LRLENNHCHVEESEHVLKKAHKYS | 2.68
LRLENNHCHMEESEHVLKKAHKYS | 2.34
LRLENNHCHWEESEHVLKKAHKYS | 2.43
LRLENNHCHPEESEHVLKKAHKYS | 3.1

Variant | protein stability index
LRLENNHCHEEESEHVLKKAHKYS | 3.08
LRLENNHCHKEESEHVLKKAHKYS | 3.33
LRLENNHCHQEESEHVLKKAHKYS | 3
LRLENNHCHGEESEHVLKKAHKYS | 2.74
LRLENNHCHDEESEHVLKKAHKYS | 3.53
LRLENNHCHTEESEHVLKKAHKYS | 3.02
LRLENNHCHHEESEHVLKKAHKYS | 3.17
LRLENNHCHNEESEHVLKKAHKYS | 2.73
LRLENNHCHAEESEHVLKKAHKYS | 3.75
LRLENRHCHIEESEHVLKKAHKYS | 2.49
LRLENEHCHIEESEHVLKKAHKYS | 3.13
LRLENTHCHIEESEHVLKKAHKYS | 2.35
LRLENPHCHIEESEHVLKKAHKYS | 2.12
LRLENQHCHIEESEHVLKKAHKYS | 2.63
LRLENGHCHIEESEHVLKKAHKYS | 2.66
LRLENLHCHIEESEHVLKKAHKYS | 2.58
LRLENIHCHIEESEHVLKKAHKYS | 2.33
LRLENWHCHIEESEHVLKKAHKYS | 1.97
LRLENAHCHIEESEHVLKKAHKYS | 2.72
LRLENYHCHIEESEHVLKKAHKYS | 2.23
LRLENKHCHIEESEHVLKKAHKYS | 3.49
LRLENDHCHIEESEHVLKKAHKYS | 2.54
LRLENHHCHIEESEHVLKKAHKYS | 3.16
LRLENMHCHIEESEHVLKKAHKYS | 1.87

Variant | protein stability index
LRLENFHCHIEESEHVLKKAHKYS | 1.75
LRLENSHCHIEESEHVLKKAHKYS | 2.55
LRLENCHCHIEESEHVLKKAHKYS | 2.44
LRLENVHCHIEESEHVLKKAHKYS | 2.13
LRLENNLCHIEESEHVLKKAHKYS | 2.32
LRLENNRCHIEESEHVLKKAHKYS | 2.9
LRLENNVCHIEESEHVLKKAHKYS | 2.35
LRLENNECHIEESEHVLKKAHKYS | 2.38
LRLENNTCHIEESEHVLKKAHKYS | 2.88
LRLENNYCHIEESEHVLKKAHKYS | 2.79
LRLENNPCHIEESEHVLKKAHKYS | 3.01
LRLENNGCHIEESEHVLKKAHKYS | 1.97
LRLENNICHIEESEHVLKKAHKYS | 2.15
LRLENNDCHIEESEHVLKKAHKYS | 2
LRLENNKCHIEESEHVLKKAHKYS | 2.84
LRLENNACHIEESEHVLKKAHKYS | 2.79
LRLENNQCHIEESEHVLKKAHKYS | 2.34
LRLENNNCHIEESEHVLKKAHKYS | 3.37
LRLENNFCHIEESEHVLKKAHKYS | 2.03
LRLENNSCHIEESEHVLKKAHKYS | 2.04
LRLENNCCHIEESEHVLKKAHKYS | 2.15
LRLENNMCHIEESEHVLKKAHKYS | 2.46
LRLENNWCHIEESEHVLKKAHKYS | 2.17
LRLENNHLHIEESEHVLKKAHKYS | 2.47

Variant | protein stability index
LRLENNHIHIEESEHVLKKAHKYS | 2.15
LRLENNHYHIEESEHVLKKAHKYS | 1.86
LRLENNHAHIEESEHVLKKAHKYS | 3.17
LRLENNHGHIEESEHVLKKAHKYS | 2.27
LRLENNHSHIEESEHVLKKAHKYS | 2.88
LRLENNHKHIEESEHVLKKAHKYS | 3.3
LRLENNHHHIEESEHVLKKAHKYS | 3.03
LRLENNHPHIEESEHVLKKAHKYS | 2.53
LRLENNHEHIEESEHVLKKAHKYS | 2.35
LRLENNHVHIEESEHVLKKAHKYS | 1.88
LRLENNHWHIEESEHVLKKAHKYS | 2.4
LRLENNHNHIEESEHVLKKAHKYS | 2.38
LRLENNHFHIEESEHVLKKAHKYS | 2.29
LRLENNHDHIEESEHVLKKAHKYS | 3.58
LRLENNHTHIEESEHVLKKAHKYS | 3.19
LRLENNHMHIEESEHVLKKAHKYS | 2.43
LRLENNHRHIEESEHVLKKAHKYS | 2.95
LRLENNHQHIEESEHVLKKAHKYS | 2.27
LRLEDNHCHIEESEHVLKKAHKYS | 1.94
LRLESNHCHIEESEHVLKKAHKYS | 1.98
LRLELNHCHIEESEHVLKKAHKYS | 2.23
LRLETNHCHIEESEHVLKKAHKYS | 2.48
LRLECNHCHIEESEHVLKKAHKYS | 2.22
LRLERNHCHIEESEHVLKKAHKYS | 2.77

Variant | protein stability index
LRLEMNHCHIEESEHVLKKAHKYS | 2.33
LRLEINHCHIEESEHVLKKAHKYS | 2.22
LRLEQNHCHIEESEHVLKKAHKYS | 2.18
LRLEKNHCHIEESEHVLKKAHKYS | 3.08
LRLEGNHCHIEESEHVLKKAHKYS | 1.91
LRLEYNHCHIEESEHVLKKAHKYS | 2.37
LRLEENHCHIEESEHVLKKAHKYS | 2.46
LRLEPNHCHIEESEHVLKKAHKYS | 2.29
LRLEWNHCHIEESEHVLKKAHKYS | 1.74
LRLEFNHCHIEESEHVLKKAHKYS | 1.27
LRLEVNHCHIEESEHVLKKAHKYS | 1.48
LRLEHNHCHIEESEHVLKKAHKYS | 1.91
LRLEANHCHIEESEHVLKKAHKYS | 2.23
LRLENNHCQIEESEHVLKKAHKYS | 2.57
LRLENNHCKIEESEHVLKKAHKYS | 3.59
LRLENNHCLIEESEHVLKKAHKYS | 1.84
LRLENNHCCIEESEHVLKKAHKYS | 2.86
LRLENNHCTIEESEHVLKKAHKYS | 3.29
LRLENNHCYIEESEHVLKKAHKYS | 1.92
LRLENNHCMIEESEHVLKKAHKYS | 2.42
LRLENNHCVIEESEHVLKKAHKYS | 2.4
LRLENNHCFIEESEHVLKKAHKYS | 1.92
LRLENNHCEIEESEHVLKKAHKYS | 1.59
LRLENNHCPIEESEHVLKKAHKYS | 1.8

Variant | protein stability index
LRLENNHCNIEESEHVLKKAHKYS | 2.27
LRLENNHCDIEESEHVLKKAHKYS | 2.68
LRLENNHCSIEESEHVLKKAHKYS | 3.23
LRLENNHCGIEESEHVLKKAHKYS | 2.7
LRLENNHCRIEESEHVLKKAHKYS | 2.83
LRLENNHCAIEESEHVLKKAHKYS | 2.2
LRLENNHCWIEESEHVLKKAHKYS | 2.18
LRLENNHCIIEESEHVLKKAHKYS | 2.19
LRIENNHCHIEESEHVLKKAHKYS | 2.62
LRYENNHCHIEESEHVLKKAHKYS | 2.56
LRWENNHCHIEESEHVLKKAHKYS | 3.01
LRDENNHCHIEESEHVLKKAHKYS | 3.12
LRKENNHCHIEESEHVLKKAHKYS | 4.32
LRMENNHCHIEESEHVLKKAHKYS | 3.13
LRSENNHCHIEESEHVLKKAHKYS | 3.33
LRRENNHCHIEESEHVLKKAHKYS | 4.51
LRHENNHCHIEESEHVLKKAHKYS | 3.6
LREENNHCHIEESEHVLKKAHKYS | 4.58
LRTENNHCHIEESEHVLKKAHKYS | 3.06
LRFENNHCHIEESEHVLKKAHKYS | 2.09
LRPENNHCHIEESEHVLKKAHKYS | 3.7
LRVENNHCHIEESEHVLKKAHKYS | 2.38
LRNENNHCHIEESEHVLKKAHKYS | 3.17
LRQENNHCHIEESEHVLKKAHKYS | 4.06

Variant | protein stability index
LRGENNHCHIEESEHVLKKAHKYS | 4.43
LRLENNHCHIEISEHVLKKAHKYS | 1.96
LRLENNHCHIESSEHVLKKAHKYS | 2.61
LRLENNHCHIEGSEHVLKKAHKYS | 2.26
LRLENNHCHIEKSEHVLKKAHKYS | 2.94
LRLENNHCHIEDSEHVLKKAHKYS | 3.1
LRLENNHCHIEVSEHVLKKAHKYS | 1.35
LRLENNHCHIETSEHVLKKAHKYS | 2.01
LRLENNHCHIELSEHVLKKAHKYS | 3.66
LRLENNHCHIEQSEHVLKKAHKYS | 2.15
LRLENNHCHIEMSEHVLKKAHKYS | 2.68
LRLENNHCHIEASEHVLKKAHKYS | 2.19
LRLENNHCHIECSEHVLKKAHKYS | 2.11
LRLENNHCHIERSEHVLKKAHKYS | 2.14
LRLENNHCHIEYSEHVLKKAHKYS | 3.21
LRLENNHCHIEHSEHVLKKAHKYS | 2.75
LRLENNHCHIEFSEHVLKKAHKYS | 1.24
LRLENNHCHIEWSEHVLKKAHKYS | 1.78
LRLENNHCHIEPSEHVLKKAHKYS | 1.93
LRLENNHCHIENSEHVLKKAHKYS | 2.44
